Assay results as given in PMC5460274, “Human dimethylarginine dimethylaminohydrolase 1 inhibition by proton pump inhibitors and the cardiovascular risk marker asymmetric dimethylarginine: in vitro and in vivo significance” (Scientific Reports, 2017).

Substrate: CN(C)C(=N)NCCC[C@H](N)C(=O)O
Test: cells, lysate or membranes

B1: dimethylarginine dimethylaminohydrolase 1 (DDAH1) (Homo sapiens) (protein)
chain: AGLGHPAAFGRATHAVVRALPESLGQHALRSAKGEEVDVARAERQHQLYVGVLGSKLGLQVVELPADESLPDCVFVEDVAVVCEETALITRPGAPSRRKEVDMMKEALEKLQLNIVEMKDENATLDGGDVLFTGREFFVGLSKRTNQRGAEILADTFKDYAVSTVPVADGLHLKSFCSMAGPNLIAIGSSESAQKALKIMQQMSDHRYDKLTVPDDIAANCIYLNIPNKGHVLLHRTPEEYPESAKVYEKLKDHMLIPVSMSELEKVDGLLTCCSVLINKKVDS
Work on B1 yielded a Km of 45 ± 2 µM.
